# Where “and” joins values, the source holds several entries; their conditions need not be identical. Equal entries are not always repeated. Starred links: 1 amine or outer side, 2 acyl side, 3 side chain; linkers in the order of their positions; H or OH if unused. Positions of bridges follow the written chain, without caps; N, C: chain ends. Non-standard residues stand in square brackets, D forms with d. Groups on a side chain read outwards from the residue. Primed or numbered codes have the meaning given here. Chains are numbered I, II in the order given. No end group written: not given here. *: point of attachment. dLys(PYA) = D-lysine Nε-acylated with 4-pentynoic acid, clicked (triazole) to the linker azide, O=C(CCc1cn([*:3])nn1)NCCCC[C@@H](N[*:1])C(=O)[*:2]; dLys(PYA)″ = D-lysine N6-(4-pentynoyl) (D-Lys(PYA)), C#CCCC(=O)NCCCC[C@@H](N[*:1])C(=O)[*:2]; TATA = O=C(CC[*:1])N1CN(C(=O)CC[*:2])CN(C(=O)CC[*:3])C1; Biotin = O=C1N[C@H]2[C@H](CS[C@H]2CCCCC(=O)*)N1; 1Nal = N[C@@H](Cc1cccc2ccccc12)C(=O)O; d1Nal = N[C@H](Cc1cccc2ccccc12)C(=O)O; Hyp = O=C(O)[C@@H]1C[C@@H](O)CN1; hArg = N=C(N)NCCCC[C@H](N)C(=O)O; tBuAla = CC(C)(C)C[C@H](N)C(=O)O; PEG12′ = not defined here; Nle = CCCC[C@H](N)C(=O)O; Pent4ynoyl = C#CCCC(=O)*
# B1: heterotandem bicyclic peptide complex BCY13272 (peptide)
# peptide 1: A[hArg]DC[Hyp]LVNPLCLEP[d1Nal]WTC
# peptide 2: Ac-C[tBuAla]PE[dLys(PYA)″]PYCFADPY[Nle]CA
# modifications: linker I:4-I:11-I:18, II:1-II:8-II:15 via TATA; not fully specified (bridges); also: 1:2 complex: BCY13118 + 2x BCY8928
# notes: also called EphA2/CD137 heterotandem
# B2: BCY13582 (biotinylated BCY11863) (peptide)
# peptide 1: CP[1Nal][dD]CM[hArg]DWSTP[Hyp]WC
# peptide 2: Ac-C[tBuAla]PE[dLys(PYA)]PYCFADPY[Nle]CA
# peptide 3: Ac-C[tBuAla]PE[dLys(PYA)]PYCFADPY[Nle]CK([PEG12′-Biotin])
# modifications: linker I:1-I:5-I:15, II:1-II:8-II:15, III:1-III:8-III:15 via TATA; also: linker at chain B 5 at chain C 5 to a chain's N-terminus via N-(acid-PEG3)-N-bis(PEG3-azide)
# notes: also called test peptide
# B3: BCY12967 (peptide)
# peptide 1: CP[1Nal]DCM[hArg]DWSTP[Hyp]WC
# peptide 2: ACLYSPCWHPLNDCAK(Pent4ynoyl)
# modifications: linker I:1-I:5-I:15 via TATA; linker II:2-II:7-II:14 via TATA (inferred); not fully specified (some residues); also: chain 1 N-terminus and chain 2 C-terminal Lys(PYA) joined by N-(acid-PEG3)-N-bis(PEG3-azide) linker
# Assays:
# human EphA2 protein [1] = target: T1, human EphA2 protein (human, UniProt P29317 25-534, limits assumed, biotinylated); test: SPR (Biacore), biotinylated human EphA2 captured on a streptavidin chip, BCY13272 as analyte, 1:1 fit
# T1 construct: Construct not described; also called EphA2 (human)
# T1 sequence (P29317 25-534 limits assumed): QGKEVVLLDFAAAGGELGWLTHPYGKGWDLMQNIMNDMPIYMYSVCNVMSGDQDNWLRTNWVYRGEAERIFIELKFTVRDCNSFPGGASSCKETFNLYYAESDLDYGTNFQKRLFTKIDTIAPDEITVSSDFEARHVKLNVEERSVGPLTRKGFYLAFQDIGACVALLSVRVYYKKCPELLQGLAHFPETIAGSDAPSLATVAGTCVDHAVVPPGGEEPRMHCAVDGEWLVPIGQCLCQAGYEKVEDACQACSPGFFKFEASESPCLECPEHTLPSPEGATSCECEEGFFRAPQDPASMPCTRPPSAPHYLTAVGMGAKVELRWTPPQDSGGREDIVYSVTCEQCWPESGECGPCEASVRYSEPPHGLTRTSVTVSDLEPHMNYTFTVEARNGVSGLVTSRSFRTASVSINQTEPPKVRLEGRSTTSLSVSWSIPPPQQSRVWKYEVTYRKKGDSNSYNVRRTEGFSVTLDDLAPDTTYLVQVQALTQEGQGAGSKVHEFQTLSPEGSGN
# [2] = target: T2, human CD137 extracellular domain (human, UniProt Q07011 24-186, biotinylated where captured on the streptavidin chip); test: SPR (Biacore), biotinylated human CD137 captured on a streptavidin chip, BCY13272 as analyte, 1:1 fit; the text says the reported KD may be an overestimation (avidity)
# T2 construct: extracellular domain; Section 17 says only 'Recombinant human CD137 (R&D systems)'; also called CD137 (human); Recombinant human CD137 (R&D systems)
# T2 sequence (Q07011 24-186): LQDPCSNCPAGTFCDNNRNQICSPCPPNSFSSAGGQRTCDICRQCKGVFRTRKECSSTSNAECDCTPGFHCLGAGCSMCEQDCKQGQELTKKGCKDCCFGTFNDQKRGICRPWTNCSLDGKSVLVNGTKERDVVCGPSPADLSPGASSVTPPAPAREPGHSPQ
# human EphA2 protein [3] = target: T1, human EphA2 protein; test: SPR (Biacore T200), biotinylated EphA2 captured on streptavidin chip, 25° C.
# [4] = target: T2, human CD137 extracellular domain; test: SPR (Biacore), biotinylated human CD137 captured on a streptavidin chip, BCY13272 as analyte, 1:1 fit; the text calls the off rate very slow (avidity from two CD137 bicycles)
# [5] = target: T2, human CD137 extracellular domain; test: SPR (Biacore), biotinylated human CD137 captured on a streptavidin chip, BCY13272 as analyte, 1:1 fit; avidity from two CD137 bicycles
# [6] = target: T3, CD137 on Jurkat reporter cells (Promega kit CS196005) (UniProt Q07011 24-255, limits assumed); test: cell-based or functional assay
# T3 sequence (Q07011 24-255 limits assumed): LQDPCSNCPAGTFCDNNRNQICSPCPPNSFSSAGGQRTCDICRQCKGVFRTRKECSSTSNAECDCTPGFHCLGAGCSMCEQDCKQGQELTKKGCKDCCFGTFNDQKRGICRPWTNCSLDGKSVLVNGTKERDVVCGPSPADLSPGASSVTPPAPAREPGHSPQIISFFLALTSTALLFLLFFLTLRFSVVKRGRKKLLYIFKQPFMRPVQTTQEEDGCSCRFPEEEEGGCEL
# soluble CD40 = target: T4, soluble CD40 (UniProt P25942 21-193, limits assumed); test: SPR, streptavidin captured BCY13582, soluble receptor
# T4 construct: also called soluble TNF family receptor CD40
# T4 sequence (P25942 21-193 limits assumed): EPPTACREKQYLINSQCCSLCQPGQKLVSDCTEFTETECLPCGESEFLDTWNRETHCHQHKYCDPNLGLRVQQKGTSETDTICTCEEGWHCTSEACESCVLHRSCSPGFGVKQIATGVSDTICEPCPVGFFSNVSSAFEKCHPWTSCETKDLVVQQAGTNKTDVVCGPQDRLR
# soluble OX40 = target: T5, soluble OX40 (UniProt P43489 29-216, limits assumed); test: as above
# T5 construct: also called soluble TNF family receptor OX40
# T5 sequence (looked up): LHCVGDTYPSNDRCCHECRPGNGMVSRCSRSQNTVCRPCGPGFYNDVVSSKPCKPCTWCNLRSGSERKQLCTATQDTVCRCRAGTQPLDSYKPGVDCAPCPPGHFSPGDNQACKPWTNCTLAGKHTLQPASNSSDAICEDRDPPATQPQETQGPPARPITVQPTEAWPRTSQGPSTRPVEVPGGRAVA
# [7] = target: T3, CD137 on Jurkat reporter cells (Promega …); test: cell-based or functional assay; remark: listed apart in the source
# [8] = target: T6, cyno (NHP) CD137 extracellular domain (cyno (NHP), UniProt A9YYE7 24-186); test: SPR direct binding, captured BCY13582, soluble CD137 ECD, n = 1
# T6 construct: extracellular domain
# T6 sequence (A9YYE7 entry or part of it): as the sequence (Q07011 24-186) above, with P4L, N19S, R50K, T66I, P67S, F69Y, G75E, V149A counted along it
# [9] = target: T2, human CD137 extracellular domain; test: SPR direct binding, captured BCY13582, soluble CD137 ECD, n = 3
# [10] = target: T7, rat CD137 extracellular domain (rat, UniProt Q4W8J3 24-189); test: SPR direct binding, captured BCY13582, n = 1
# T7 sequence: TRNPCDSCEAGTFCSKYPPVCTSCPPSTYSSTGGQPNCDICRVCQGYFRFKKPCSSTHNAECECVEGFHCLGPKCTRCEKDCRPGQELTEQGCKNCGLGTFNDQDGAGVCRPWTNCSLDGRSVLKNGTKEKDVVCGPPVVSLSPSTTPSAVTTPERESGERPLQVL
# [11] = target: T8, mouse CD137 extracellular domain (mouse, UniProt P20334 24-187); test: SPR direct binding, captured BCY13582, n = 1
# T8 construct: extracellular domain
# T8 sequence (looked up): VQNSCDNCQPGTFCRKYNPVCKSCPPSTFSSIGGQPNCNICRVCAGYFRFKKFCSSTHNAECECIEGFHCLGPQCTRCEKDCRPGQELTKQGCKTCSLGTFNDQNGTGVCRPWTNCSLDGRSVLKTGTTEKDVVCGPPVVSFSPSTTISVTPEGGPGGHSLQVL
# [12] = target: T3, CD137 on Jurkat reporter cells (Promega …); test: cell-based or functional assay; remark: listed apart in the source
# EVA1C = target: T9, EVA1C (human, UniProt P58658); test: Retrogenix cell microarray, HEK293 cells over-expressing the protein, detection with AlexaFluor647 streptavidin
# T9 construct: full-length protein over-expressed in HEK293 cells
# T9 sequence (single chain, looked up): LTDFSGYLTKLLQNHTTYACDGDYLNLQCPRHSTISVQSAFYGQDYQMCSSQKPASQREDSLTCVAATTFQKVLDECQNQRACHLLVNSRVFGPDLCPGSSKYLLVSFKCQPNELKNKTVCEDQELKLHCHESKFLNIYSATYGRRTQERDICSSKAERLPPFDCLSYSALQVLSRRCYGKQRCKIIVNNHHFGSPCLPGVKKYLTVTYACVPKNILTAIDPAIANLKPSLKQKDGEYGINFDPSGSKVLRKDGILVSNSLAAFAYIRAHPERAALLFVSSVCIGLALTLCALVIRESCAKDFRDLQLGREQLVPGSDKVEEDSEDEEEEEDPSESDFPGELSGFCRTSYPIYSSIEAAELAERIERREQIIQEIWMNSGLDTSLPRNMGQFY
# APLN = target: T10, APLN (human, UniProt Q9ULZ1); test: as above
# T10 construct: full-length protein over-expressed in HEK293 cells
# T10 sequence (single chain, looked up): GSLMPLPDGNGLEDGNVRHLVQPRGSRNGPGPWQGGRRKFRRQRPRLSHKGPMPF
# HMGB2 = target: T11, HMGB2 (human, UniProt P26583); test: as above
# T11 construct: full-length protein over-expressed in HEK293 cells
# T11 sequence (single chain, looked up): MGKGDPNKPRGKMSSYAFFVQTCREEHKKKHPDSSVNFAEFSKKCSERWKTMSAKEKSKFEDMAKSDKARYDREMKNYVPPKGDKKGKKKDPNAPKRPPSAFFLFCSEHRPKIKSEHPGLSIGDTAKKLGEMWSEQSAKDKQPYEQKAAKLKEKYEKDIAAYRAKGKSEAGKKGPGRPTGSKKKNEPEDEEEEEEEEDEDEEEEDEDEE
# IGFBP1 = target: T12, IGFBP1 (human, UniProt P08833); test: as above
# T12 construct: full-length protein over-expressed in HEK293 cells
# T12 sequence (single chain, looked up): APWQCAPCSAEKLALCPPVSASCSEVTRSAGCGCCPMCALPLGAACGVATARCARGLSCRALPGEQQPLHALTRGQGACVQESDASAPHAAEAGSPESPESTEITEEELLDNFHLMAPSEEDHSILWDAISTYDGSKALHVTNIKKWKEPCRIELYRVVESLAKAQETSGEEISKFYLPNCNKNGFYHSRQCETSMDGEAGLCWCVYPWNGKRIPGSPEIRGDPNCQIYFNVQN
# GPR39 = target: T13, GPR39 (human, UniProt O43194); test: as above
# T13 construct: full-length protein over-expressed in HEK293 cells
# T13 sequence (single chain, looked up): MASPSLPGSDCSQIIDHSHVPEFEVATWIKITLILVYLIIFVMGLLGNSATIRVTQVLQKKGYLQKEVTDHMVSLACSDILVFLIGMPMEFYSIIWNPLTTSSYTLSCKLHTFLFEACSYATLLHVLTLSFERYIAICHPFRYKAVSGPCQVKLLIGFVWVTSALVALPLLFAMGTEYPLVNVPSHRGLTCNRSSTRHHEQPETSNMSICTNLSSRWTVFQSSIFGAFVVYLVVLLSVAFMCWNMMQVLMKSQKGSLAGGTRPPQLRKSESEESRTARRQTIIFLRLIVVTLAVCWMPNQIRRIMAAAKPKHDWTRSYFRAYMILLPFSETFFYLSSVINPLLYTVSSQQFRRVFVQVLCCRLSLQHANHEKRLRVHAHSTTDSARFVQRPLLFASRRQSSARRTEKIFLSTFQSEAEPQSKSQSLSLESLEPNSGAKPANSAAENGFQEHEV
# METTL24 = target: T14, METTL24 (human, UniProt Q5JXM2); test: as above
# T14 construct: full-length protein over-expressed in HEK293 cells
# T14 sequence (single chain, looked up): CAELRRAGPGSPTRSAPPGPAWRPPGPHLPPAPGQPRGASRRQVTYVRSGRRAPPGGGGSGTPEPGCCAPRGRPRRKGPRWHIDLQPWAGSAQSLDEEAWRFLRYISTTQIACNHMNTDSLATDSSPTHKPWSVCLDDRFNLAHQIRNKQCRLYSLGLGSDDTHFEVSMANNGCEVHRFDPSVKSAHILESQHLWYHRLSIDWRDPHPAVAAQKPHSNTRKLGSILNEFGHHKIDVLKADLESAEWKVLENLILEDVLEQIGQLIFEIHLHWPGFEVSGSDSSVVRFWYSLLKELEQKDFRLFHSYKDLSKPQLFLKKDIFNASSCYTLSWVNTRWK
# [13] = target: T15, OX40 on Jurkat reporter cells (Promega CS197704) (UniProt P43489 29-277); test: cell-based or functional assay
# T15 sequence (looked up): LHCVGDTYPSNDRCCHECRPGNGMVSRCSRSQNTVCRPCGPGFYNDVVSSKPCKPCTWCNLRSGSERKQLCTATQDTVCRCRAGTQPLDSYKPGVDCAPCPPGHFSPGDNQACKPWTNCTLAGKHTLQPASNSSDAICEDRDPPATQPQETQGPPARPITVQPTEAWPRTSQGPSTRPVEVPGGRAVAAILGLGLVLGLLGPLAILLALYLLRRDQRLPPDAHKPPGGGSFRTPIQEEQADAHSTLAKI
binder,measurement,setting,value
B1,koff,human EphA2 protein [1],0.00102 s⁻¹
same,kon,human EphA2 protein [1],502000 M⁻¹ s⁻¹
same,Kd,[2],≤ 0.0331 nM
same,Kd,human EphA2 protein [3],2 nM
same,koff,[4],≤ 1e-05 s⁻¹
same,kon,[5],302000 M⁻¹ s⁻¹
same,"EC50 (nM), A549 co-culture",[6],0.147 nM and 0.107 nM and 0.132 nM
same,"Geo mean EC50/cell line, A549",[6],0.127 nM
same,"Geo mean EC50/cell line, HT-29",[6],0.279 nM
same,"Geo mean EC50/cell line, PC-3",[6],0.117 nM
B2,binding result,soluble CD40,no binding (tested: 100 nM)
same,binding result,soluble OX40,no binding (tested: 100 nM)
same,"EC50 (nM), HT1376 co-culture",[7],0.58 nM
same,"Emax (fold induction over background), HT1376",[7],57 fold over background
same,Kd,[8],4.23 nM
same,Kd,[9],8.4 nM
same,binding result,[10],no binding
same,binding result,[11],no binding
same,"Arithmetic mean EC50 (nM), HT1376 co-culture",[12],0.58 nM
same,"Arithmetic mean EC50 (nM), MDA-MB-468 co-culture",[12],0.34 nM
same,binding result,EVA1C,no binding (tested: 1 µM)
same,binding result,APLN,no binding (tested: 1 µM)
same,binding result,HMGB2,no binding (tested: 1 µM)
same,binding result,IGFBP1,no binding (tested: 1 µM)
same,binding result,GPR39,no binding (tested: 1 µM)
same,binding result,METTL24,no binding (tested: 1 µM)
B3,"EC50 (nM), Promega OX40 cell-activity assay in co-culture with tumor cells",[13],0.83 nM

# From US20230129258A1 (Bicycle, published 2023)
